The results in this text go back to patent publication US7744896 (ISTITUTO SUPERIORE DI SANITA, dated 2010).

For assay [1], the target named is T1, α5β1 integrin (fibronectin receptor) on cytokine-activated human umbilical vein endothelial (HUVE) cells (human, UniProt P08648 42-1049; P05556 21-798).
T1 construct: whole, on cells; also called FN receptor
In words: conclusion of the uptake inhibition experiments on IC-activated HUVE cells.

In assay [2] the target is T2, αvβ3 integrin (vitronectin receptor) on cytokine-activated human umbilical vein endothelial (HUVE) cells (human, UniProt P06756 31-1048; P05106 27-788).
T2 construct: whole, on cells; also called VN receptor
The description is as above.

T2 sequence (P06756 31-1048, chain 1 of 2): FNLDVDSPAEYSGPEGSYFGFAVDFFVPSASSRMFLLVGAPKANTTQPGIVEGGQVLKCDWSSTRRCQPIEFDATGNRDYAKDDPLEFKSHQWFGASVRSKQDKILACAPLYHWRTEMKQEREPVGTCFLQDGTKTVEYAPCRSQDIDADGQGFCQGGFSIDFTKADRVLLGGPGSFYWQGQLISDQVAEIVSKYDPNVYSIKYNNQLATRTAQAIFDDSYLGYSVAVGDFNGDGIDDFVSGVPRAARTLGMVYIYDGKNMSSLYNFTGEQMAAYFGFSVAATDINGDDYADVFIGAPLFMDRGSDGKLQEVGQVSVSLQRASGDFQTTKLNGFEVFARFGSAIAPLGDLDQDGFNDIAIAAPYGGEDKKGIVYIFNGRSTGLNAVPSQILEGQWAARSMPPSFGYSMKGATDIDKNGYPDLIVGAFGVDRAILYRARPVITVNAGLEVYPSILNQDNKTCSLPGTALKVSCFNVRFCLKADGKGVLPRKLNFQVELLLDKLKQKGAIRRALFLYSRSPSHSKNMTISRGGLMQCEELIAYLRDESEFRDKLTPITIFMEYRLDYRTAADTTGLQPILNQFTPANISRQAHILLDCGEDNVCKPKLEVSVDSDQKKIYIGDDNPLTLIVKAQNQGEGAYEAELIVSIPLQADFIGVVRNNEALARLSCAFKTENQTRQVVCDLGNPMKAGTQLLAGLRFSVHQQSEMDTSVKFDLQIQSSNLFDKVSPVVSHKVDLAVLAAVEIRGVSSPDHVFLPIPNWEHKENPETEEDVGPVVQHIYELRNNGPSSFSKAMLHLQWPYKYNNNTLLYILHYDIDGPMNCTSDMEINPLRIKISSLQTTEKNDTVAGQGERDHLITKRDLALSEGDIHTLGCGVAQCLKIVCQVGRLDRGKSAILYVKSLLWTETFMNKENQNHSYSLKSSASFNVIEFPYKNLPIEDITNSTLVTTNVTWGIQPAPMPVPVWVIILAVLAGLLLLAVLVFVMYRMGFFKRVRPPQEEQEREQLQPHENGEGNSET
T2 sequence (P05106 27-788, chain 2 of 2): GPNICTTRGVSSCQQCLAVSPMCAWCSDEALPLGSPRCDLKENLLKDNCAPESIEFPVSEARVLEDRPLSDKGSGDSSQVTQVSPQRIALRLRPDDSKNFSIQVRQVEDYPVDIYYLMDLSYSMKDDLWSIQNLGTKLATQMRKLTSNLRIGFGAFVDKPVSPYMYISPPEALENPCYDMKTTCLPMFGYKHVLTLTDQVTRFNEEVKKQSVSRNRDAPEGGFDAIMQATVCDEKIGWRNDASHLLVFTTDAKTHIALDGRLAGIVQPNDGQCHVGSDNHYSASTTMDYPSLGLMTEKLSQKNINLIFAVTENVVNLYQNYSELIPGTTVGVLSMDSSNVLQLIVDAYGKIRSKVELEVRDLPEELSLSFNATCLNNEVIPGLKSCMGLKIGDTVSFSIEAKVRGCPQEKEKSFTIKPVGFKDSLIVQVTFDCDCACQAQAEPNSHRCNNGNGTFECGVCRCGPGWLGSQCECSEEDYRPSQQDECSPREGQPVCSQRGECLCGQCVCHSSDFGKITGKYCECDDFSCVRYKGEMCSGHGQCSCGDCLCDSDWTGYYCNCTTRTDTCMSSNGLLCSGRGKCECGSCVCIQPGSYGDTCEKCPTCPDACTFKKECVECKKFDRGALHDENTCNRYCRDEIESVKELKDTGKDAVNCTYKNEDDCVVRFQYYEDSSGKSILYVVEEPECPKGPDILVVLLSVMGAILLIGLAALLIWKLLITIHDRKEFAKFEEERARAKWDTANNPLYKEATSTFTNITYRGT
T1 sequence (P08648 42-1049, chain 1 of 2): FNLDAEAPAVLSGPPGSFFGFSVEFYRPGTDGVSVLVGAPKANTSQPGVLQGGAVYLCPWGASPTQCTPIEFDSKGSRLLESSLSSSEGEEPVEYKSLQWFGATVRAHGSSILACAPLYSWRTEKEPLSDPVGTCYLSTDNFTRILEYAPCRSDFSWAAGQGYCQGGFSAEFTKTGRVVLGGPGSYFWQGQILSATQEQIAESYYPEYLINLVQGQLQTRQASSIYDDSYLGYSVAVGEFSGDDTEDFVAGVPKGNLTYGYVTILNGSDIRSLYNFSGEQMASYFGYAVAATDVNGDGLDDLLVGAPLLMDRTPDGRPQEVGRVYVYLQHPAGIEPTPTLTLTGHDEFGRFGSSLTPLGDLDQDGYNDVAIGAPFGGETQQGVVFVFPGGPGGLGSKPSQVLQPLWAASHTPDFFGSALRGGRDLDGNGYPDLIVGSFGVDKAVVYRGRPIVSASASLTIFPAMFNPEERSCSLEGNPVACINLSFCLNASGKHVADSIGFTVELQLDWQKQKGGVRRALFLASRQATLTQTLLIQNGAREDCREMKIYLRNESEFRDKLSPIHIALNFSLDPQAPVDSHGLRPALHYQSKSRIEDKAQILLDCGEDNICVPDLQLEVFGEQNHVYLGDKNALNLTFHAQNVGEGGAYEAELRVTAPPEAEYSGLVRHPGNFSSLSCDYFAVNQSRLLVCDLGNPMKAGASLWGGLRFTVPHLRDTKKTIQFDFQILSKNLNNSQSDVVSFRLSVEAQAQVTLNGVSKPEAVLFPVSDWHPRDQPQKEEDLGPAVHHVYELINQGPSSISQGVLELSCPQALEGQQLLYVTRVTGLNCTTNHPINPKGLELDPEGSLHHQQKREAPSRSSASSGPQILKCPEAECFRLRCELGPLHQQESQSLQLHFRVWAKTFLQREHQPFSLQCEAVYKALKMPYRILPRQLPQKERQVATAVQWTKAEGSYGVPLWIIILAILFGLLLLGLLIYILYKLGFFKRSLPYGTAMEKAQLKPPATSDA
T1 sequence (P05556 21-798, chain 2 of 2): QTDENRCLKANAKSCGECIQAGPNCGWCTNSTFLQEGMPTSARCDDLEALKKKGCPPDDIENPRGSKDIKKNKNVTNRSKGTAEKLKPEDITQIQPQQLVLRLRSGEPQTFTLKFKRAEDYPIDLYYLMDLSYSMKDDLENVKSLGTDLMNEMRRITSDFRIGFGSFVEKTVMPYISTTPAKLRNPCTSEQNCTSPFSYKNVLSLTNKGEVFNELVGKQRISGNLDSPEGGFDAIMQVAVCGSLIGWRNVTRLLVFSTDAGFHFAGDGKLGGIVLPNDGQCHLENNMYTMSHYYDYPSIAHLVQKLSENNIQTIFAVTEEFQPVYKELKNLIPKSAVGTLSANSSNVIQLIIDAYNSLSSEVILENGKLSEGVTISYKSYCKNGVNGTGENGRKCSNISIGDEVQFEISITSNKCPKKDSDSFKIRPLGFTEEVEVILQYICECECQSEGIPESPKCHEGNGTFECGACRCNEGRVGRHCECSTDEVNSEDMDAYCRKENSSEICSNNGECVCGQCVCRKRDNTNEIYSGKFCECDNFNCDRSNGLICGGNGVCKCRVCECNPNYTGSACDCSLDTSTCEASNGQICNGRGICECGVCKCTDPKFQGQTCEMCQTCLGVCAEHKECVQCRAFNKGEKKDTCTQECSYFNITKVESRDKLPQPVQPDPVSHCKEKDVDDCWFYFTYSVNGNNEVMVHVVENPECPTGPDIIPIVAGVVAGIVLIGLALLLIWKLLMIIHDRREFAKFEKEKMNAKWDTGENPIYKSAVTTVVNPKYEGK

B1: rhodaminated Tat protein (other)
chain: MEPVDPRLEPWKHPGSQPKTACTNCYCKKCCFHCQVCFITKALGISYGRKKRRQRRRPPQGSQTHQVSLSKQPTSQSRGDPTGPKE
modifications: rhodaminated (TRITC) at lysine residues
notes: Recombinant Tat labelled with TRITC; also called rhodaminated biologically-active Tat protein
Consider B1, for which the binding result in assay [1] and in assay [2] was “binds” each time.
